Laboratory results taken from US11046988B2, “Process for the modification of a glycoprotein using a β-(1,4)-N-acetylgalactosaminyl transferase or a mutant thereof” (Synaffix B.V., priority 2014, dated 2021).

B1: TnGalNAcT: truncated Trichoplusia ni β-(1,4)-GalNAcT, amino acids 33-421 of SEQ ID NO: 4 (SEQ ID NO: 8) (protein)
chain: SPLRTYLYTPLYNATQPTLRNVERLAANWPKKIPSNYIEDSEEYSIKNISLSNHTTRASVVHPPSSITETASKLDKNMTIQDGAFAMISPTPLLITKLMDSIKSYVTTEDGVKKAEAVVTLPLCDSMPPDLGPITLNKTELELEWVEKKFPEVEWGGRYSPPNCTARHRVAIIVPYRDRQQHLAIFLNHMHPFLMKQQIEYGIFIVEQEGNKDFNRAKLMNVGFVESQKLVAEGWQCFVFHDIDLLPLDTRNLYSCPRQPRHMSASIDKLHFKLPYEDIFGGVSAMTLEQFTRVNGFSNKYWGWGGEDDDMSYRLKKINYHIARYKMSIARYAMLDHKKSTPNPKRYQLLSQTSKTFQKDGLSTLEYELVQVVQYHLYTHILVNIDERS
modifications: TnGalNAcT(33-421)

Test system: trimmed trastuzumab (core GlcNAc(Fuc) / core GlcNAc, glycan of formula (1))
Assay: Glycosyltransfer of sugar derivative to trimmed (Endo S deglycosylated) trastuzumab, MS analysis
Type: biochemical
Conditions: for major heavy chain product, F2-GalNAz transfer to core GlcNAc(Fuc)-substituted trastuzumab: UDP-F2-GalNAz 0.4 mM; for conversion of the starting material into two products: UDP-GalNProSH 2 mM
Method: Trimming of IgG glycans was performed using Endo S from Streptococcus pyogenes (commercially available from Genovis, Lund, Sweden). The IgG (10 mg/mL) was incubated with Endo S (40 U/mL) in 25 mM Tris pH 8.0 for approximately 16 hours at 37° C. The deglycosylated IgG was concentrated and washed with 10 mM MnCl2 and 25 mM Tris-HCl pH 8.0 using an Amicon Ultra-0.5, Ultracel-10 Membrane (Millipore).
Trastuzumab was subjected to the trimming protocol above. Analysis of the trimmed antibody was performed on a JEOL AccuToF equipped with an Agilent 1100 HPLC. Samples (2 μL) were reduced with DTT (2 μL) during 10 min and subsequently diluted with H2O (40 μL) prior to injection. […] The two peaks of heavy chain belonged to one major product (49496 Da, 90% of total heavy chain), resulting from core GlcNAc(Fuc) substituted trastuzumab, and a minor product (49351 Da, ±10% of total heavy chain), resulting from core GlcNac substituted trastuzumab. This is an example of a glycoprotein comprising a glycan according to formula (1).
A solution of 50 μg (modified) IgG, 1 M Tris-HCl pH 8.0, 1 mM EDTA and 30 mM DTT with a total volume of approximately 70 μL was incubated for 20 minutes at 37° C. to reduce the disulfide bridges allowing to analyze both light and heavy chain. If present, azide-functionalities are reduced to amines under these conditions. Reduced samples were washed trice with milliQ using an Amicon Ultra-0.5, Ultracel-10 Membrane (Millipore) and concentrated to 10 μM (modified) IgG. The reduced IgG was analyzed by electrospray ionization time-of-flight (ESI-TOF) on a JEOL AccuTOF. Deconvoluted spectra were obtained using Magtran software.
Enzymatic introduction of galactose derivative (e.g. azido-containing sugar) onto IgG was effected with a GalNAc-transferase or a mutant thereof. The deglycosylated IgG (prepared as described above, 10 mg/mL) was incubated with a modified UDP-galactose derivative (e.g. an azido-modified sugar-UDP derivative) (0.4 mM) and GalNAcT (1 mg/mL) in 10 mM MnCl2 and 25 mM Tris-HCl pH 8.0 for 16 hours at 30° C. The functionalized IgG (e.g. azido-functionalized IgG) was incubated with protein A agarose (40 μL per mg IgG) for 2 hours at 4° C. The protein A agarose was washed three times with PBS and the IgG was eluted with 100 mM glycine-HCl pH 2.7. The eluted IgG was neutralized with 1 M Tris-HCl pH 8.0 and concentrated and washed with PBS using an Amicon Ultra-0.5, Ultracel-10 Membrane (Millipore) to a concentration of 15-20 mg/mL.
Enzymatic introduction of galactose derivative (e.g. thio-containing sugar 21) onto IgG was effected with a GalNAc-transferase or a mutant thereof. The deglycosylated IgG (prepared as described above, 10 mg/mL) was incubated with a modified UDP-galactose derivative (e.g. an thio-modified sugar-UDP derivative) (2 mM) and GalNAcT (0.2 mg/mL) in 10 mM MnCl2 and 50 mM Tris-HCl pH 6.0 for 16 hours at 30° C. The functionalized IgG (e.g. thio-functionalized trastuzumab) was incubated with protein A agarose (40 μL per mg IgG) for 1 hours at rt. The protein A agarose was washed three times with TBS (pH 6.0) and the IgG was eluted with 100 mM glycine-HCl pH 2.5. The eluted IgG was neutralized with 1 M Tris-HCl pH 7.0 and concentrated and washed with 50 mM Tris-HCl pH 6.0 using an Amicon Ultra-0.5, Ultracel-10 Membrane (Millipore) to a concentration of 15-20 mg/mL.

[1] = GalNAcT 1 mg/mL, 10 mM MnCl2, pH 8.0, 16 hours, 30° C.
[2] = UDP-GalNAz 0.4 mM, GalNAcT 1 mg/mL, 10 mM MnCl2, pH 8.0, 16 hours, 30° C.

Molecule | major heavy chain product, F2-GalNAz transfer to core GlcNAc(Fuc)-substituted trastuzumab [1] | major product, F2-GalNBAz transfer to core GlcNAc(Fuc) substituted trastuzumab heavy chain (UDP-F2GalNBAz 7 mM, CeGalNAcT 2 mg/mL, 10 mM MnCl2, pH 8.0, 30° C. overnight) | major product, GalNAz transfer to core GlcNAc(Fuc) substituted trastuzumab [2] | minor product, GalNAz transfer to core GlcNAc substituted trastuzumab [2] | conversion of the starting material into two products (CeGalNAcT 1 mg/mL, overnight) | conversion, GalNBzN3 transfer to core GlcNAc(Fuc) substituted trastuzumab (UDP-GalNBzN3 4 mM, TnGalNAcT 0.7 mg/mL, overnight) | conversion of the starting material into two products (TnGalNAcT 0.2 mg/mL, overnight) | conversion, GalNPyrN3 transfer to core GlcNAc(Fuc) substituted trastuzumab (UDP-GalNPyrN3 4 mM, TnGalNAcT 0.5 mg/mL, overnight)
CeGalNAcT: truncated Caenorhabditis elegans β-(1,4)-GalNAcT, amino acids 30-383 of SEQ ID NO: 2 (SEQ ID NO: 6) | approximately 90 % of total heavy chain | approximately 90 % of total heavy chain | 90 % of total heavy chain | ~10 % of total heavy chain | Full conversion | – | – | –
B1 | approximately 90 % of total heavy chain | – | – | – | – | About 70% | Full conversion | About 50%
